Article PMC2267006, “Methylated DNA Recognition during the Reversal of Epigenetic Silencing Is Regulated by Cysteine and Serine Residues in the Epstein-Barr Virus Lytic Switch Protein”

Legend:
Zta [1] = biological target: T1, Zta (Epstein-Barr virus, UniProt P03206 1-245); experiment: competition; vs labelled ZIIIB; rank 2 of single-methyl sites; EMSA conditions not stated (cited to earlier papers); IVT proteins in rabbit reticulocyte lysate or wheat germ; competition with 6x-100x unlabelled DNA; settings: protein: ivt; tags: [35S]Met-labelled in EMSA; chain copies: 2
Zta [2] = biological target: T1, Zta; experiment: competition; vs labelled ZIIIB; rank 1 of single-methyl sites; EMSA conditions not stated (cited to earlier papers); IVT proteins in rabbit reticulocyte lysate or wheat germ; competition with 6x-100x unlabelled DNA; settings: protein: ivt; tags: [35S]Met-labelled in EMSA; chain copies: 2

T1 sequence (P03206 whole entry): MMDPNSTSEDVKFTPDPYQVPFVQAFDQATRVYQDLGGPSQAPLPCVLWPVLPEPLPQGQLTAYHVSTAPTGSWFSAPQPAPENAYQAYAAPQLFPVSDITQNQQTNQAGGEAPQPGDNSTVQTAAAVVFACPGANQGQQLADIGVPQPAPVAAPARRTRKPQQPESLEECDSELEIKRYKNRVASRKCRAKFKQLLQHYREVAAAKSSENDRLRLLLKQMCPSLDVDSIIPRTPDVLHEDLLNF

| Binder | binding result (Zta [1]) | binding result (Zta [2]) |
| --- | --- | --- |
| ZRE3 mC-2 (dsDNA, single 5mC at C13 of strand 1 (position assigned from text)) DNA 1: GATCTATAGCATCGCGAATTTTGA DNA 2: TCAAAATTCGCGATGCTATAGATC | binds | – |
| ZRE3 mC1' (dsDNA, single 5mC at the complement of G14 (position assigned from text)) DNA 1: GATCTATAGCATCGCGAATTTTGA DNA 2: TCAAAATTCGCGATGCTATAGATC | – | binds |
